Series [1] concerns the target T1, hcGAS WT (Homo sapiens, UniProt Q8N884 1-522). Put plainly: MST. The settings on record: EMSA: 50 nM Cy3-DNA, 20 mM Tris-HCl pH 7.5, 150 mM NaCl, 37 C 30 min, 1.5% agarose, MST: 50 nM Cy5-DNA, same buffer, room temperature, MARTFQ: 50 nM cGAS. On the technique in general: Mobility shift assays separate free from complexed probe on a gel.
The target of series [2] is T1, hcGAS WT. The series can be described thus: MARTFQ fluorescence quenching; EMSA: 50 nM Cy3-DNA, 20 mM Tris-HCl pH 7.5, 150 mM NaCl, 37 C 30 min, 1.5% agarose; MST: 50 nM Cy5-DNA, same buffer, room temperature; MARTFQ: 50 nM cGAS, DNA titration, 5 min. The settings on record: protein: recombinant, tags: His (pET-28a, Ni purified).
Series [3] has as its target T1, hcGAS WT. Put plainly: EMSA; EMSA: 50 nM Cy3-DNA, 20 mM Tris-HCl pH 7.5, 150 mM NaCl, 37 C 30 min, 1.5% agarose; MST: 50 nM Cy5-DNA, same buffer, room temperature; MARTFQ: 50 nM cGAS, DNA titration, 5 min. The settings on record: protein: recombinant, tags: His (pET-28a, Ni purified), label: 5' Cy3 on F (EMSA).
[4] abbreviates: blunt, self-complementary strands.

T1 sequence (Q8N884 whole entry): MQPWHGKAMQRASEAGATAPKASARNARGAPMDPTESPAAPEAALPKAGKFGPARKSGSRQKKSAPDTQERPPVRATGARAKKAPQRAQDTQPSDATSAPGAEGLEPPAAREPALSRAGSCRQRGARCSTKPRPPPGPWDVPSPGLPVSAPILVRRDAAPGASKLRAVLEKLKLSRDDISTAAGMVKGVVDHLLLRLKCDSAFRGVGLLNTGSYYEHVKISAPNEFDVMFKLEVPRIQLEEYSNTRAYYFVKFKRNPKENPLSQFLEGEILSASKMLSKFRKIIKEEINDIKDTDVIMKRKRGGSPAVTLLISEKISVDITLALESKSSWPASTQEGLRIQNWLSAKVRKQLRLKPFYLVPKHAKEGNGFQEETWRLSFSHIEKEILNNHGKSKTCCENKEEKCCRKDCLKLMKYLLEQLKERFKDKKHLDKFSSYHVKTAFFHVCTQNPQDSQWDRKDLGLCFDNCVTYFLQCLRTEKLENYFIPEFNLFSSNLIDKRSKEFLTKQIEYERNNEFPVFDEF

As to Nick ISD, the Kd – broadly, a measure of binding affinity in units of concentration – in series [1] (nick) stood at 150 nM.

Regarding Gap ISD, in series [1] (gap), the Kd is 75.8 nM.

Ctrl ISD displayed a Kd in series [1] of 1270 nM.

The molecule 8-OdG ISD returned a Kd in series [1] (8-oxo-dG) of 97.9 nM.

On to Mis ISD, for which the Kd in series [1] (mismatch) worked out at 108 nM.

B1: pGC 44 bp poly(dG:dC) (dsDNA)
DNA 1: CGCGCGCGCGCGCGCGCGCGCGCGCGCGCGCGCGCGCGCGCGCG
DNA 2: B1 DNA 1
As for B1, in series [2] (setting [4]), the Kd came out at 376 ± 78.8 nM.

B2: pAT 44 bp poly(dA:dT) (dsDNA)
DNA 1: ATATATATATATATATATATATATATATATATATATATATATAT
DNA 2: B2 DNA 1
As to B2, the equilibrium dissociation constant (Kd) in series [2] (setting [4]) turned out to be 640 ± 123 nM.

B3: pA:pT 44 bp (dsDNA)
DNA 1: AAAAAAAAAAAAAAAAAAAAAAAAAAAAAAAAAAAAAAAAAAAA
DNA 2: TTTTTTTTTTTTTTTTTTTTTTTTTTTTTTTTTTTTTTTTTTTT
Take B3: the Kd in series [2] (blunt) stood at 3460 ± 637 nM.

B4: Gap pA:pT 44 bp (dsDNA)
DNA 1: B3 DNA 1
DNA 2: TTTTTTTTTTTTTTTTTTTTTT
DNA 3: TTTTTTTTTTTTTTTTTTTTT
modifications: 1 nt gap in dT strand
On to B4, for which the Kd in series [2] (gapped duplex, three strands) is 190 ± 35.2 nM.

B5: E8 63 bp (dsDNA)
DNA 1: TTTTATTTATCGCCTCCACGGTGCTGCACGTACGCGCTGTTGGCCGTGTTATCTCGAGTTAGT
DNA 2: ACTAACTCGAGATAACACGGCCAACAGCGCGTACGTGCAGCACCGTGGAGGCGATAAATAAAA
For the molecule B5, in series [3] (blunt), the binding result is listed as “binds”.

B6: Gap E8A26 63 bp (dsDNA)
DNA 1: TTTTATTTATCGCCTCCTTTTTTTTTTTTTTTTTTTTTTTTTTCCGTGTTATCTCGAGTTAGT
DNA 2: ACTAACTCGAGATAACACGGAAA
DNA 3: AAAAAAAAAAAAAAAAAAAAAAGGAGGCGATAAATAAAA
modifications: 1 nt gap in R strand
As to B6, the binding result in series [3] (gapped duplex, three strands) is “binds”.

Source of the values: paper PMC9675814, “DNA mechanical flexibility controls DNA potential to activate cGAS-mediated immune surveillance”.
